Measurements as given in paper PMC13503762 (Nature Communications, 2026).

Target: SARS-CoV-2 M protein (purified, in LMNG/CHS detergent) (SARS-CoV-2, UniProt P0DTC5)
Test: cryo-EM structure
Details: both partners purified

B1: long conformation Fab (lcFab) (Fab, V domains shown)
VH: EVQLQQSGAELVRPGSSVKISCKGSGYVFSNYWMNWVKQRPGQGLEWIGQIYPGDGDTNYNGKFKGKATLTADKSSSTAYMQLSSLTSEDSAVYFCASGYLGENYVMDFWGQGTSVTVSS
VL: DIVLTQSPASLTVSLGQRATISCRASESVDSFGNSFMHWYQQKPGQPPKLLIYRASNLESGIPARFSGSGSRTDFTLTINPVEADDVATYYCQQSSEDPYTFGGGTKLEIK
notes: also called Fab targeting M_(long)
binding result: binds
